Source: PMC9911399, “Two distinct binding modes provide the RNA-binding protein RbFox with extraordinary sequence specificity”
Where a chain is given by its changes, count along the chain named.

B1: UGCAUGU (ssRNA)
RNA: UGCAUGU
B2: UGCAUGU (cognate) (ssRNA)
RNA: UGCAUGU
B3: UGAAUGU (ssRNA)
RNA: UGAAUGU

Tests used:
[1] = target: T1, RbFoxmut (RRM with four substitutions) (UniProt Q9NWB1); experiment: EMSA; conditions: EMSA: 10 mM Tris pH 7.5, 150 mM NaCl, 3.4 mM EDTA, 0.001% NP-40, 30 C, 10 min, 1 nM RNA, 8% native PAGE; NMR: 10 mM sodium phosphate pH 6.0, 30 mM NaCl, 298 K …
T1 sequence: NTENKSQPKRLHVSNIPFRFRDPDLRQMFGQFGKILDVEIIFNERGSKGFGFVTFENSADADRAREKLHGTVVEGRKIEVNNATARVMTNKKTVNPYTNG

[2] = target: T2, RBFOX1 RRM RbFoxmut (Fox-RRM*) (Homo sapiens, UniProt Q9NWB1 109-208, R118D;E147R;N151S;E152T); experiment: EMSA; 10 mM Tris pH 7.5, 150 mM NaCl, 3.4 mM EDTA, 0.001% NP-40, 30 C; conditions: tags: His6 N-terminal (pET28a); label: 5' 32P
T2 sequence: T1 sequence with R10D, E39R, N43S, E44T

RbFox RRM (wt) = target: T3, RbFox RRM (wt) (UniProt Q9NWB1 109-208); experiment: EMSA; EMSA: 10 mM Tris pH 7.5, 150 mM NaCl, 3.4 mM EDTA, 0.001% NP-40, 30 C, 10 min, 1 nM RNA, 8% native PAGE; NMR: 10 mM sodium phosphate pH 6.0, 30 mM NaCl, 298 K; conditions: protein: recombinant; tags: His6 (HisTrap) for EMSA; His6-GST removed by TEV for NMR; label: 5' 32P (EMSA); unlabeled (NMR)
T3 sequence: T1 sequence

RBFOX1 RRM = target: T4, RBFOX1 RRM (Homo sapiens, UniProt Q9NWB1 109-208); experiment: EMSA; 10 mM Tris pH 7.5, 150 mM NaCl, 3.4 mM EDTA, 0.001% NP-40, 30 C; conditions: tags: His6 N-terminal (pET28a); label: 5' 32P
T4 sequence: T1 sequence

Molecule | K half [1] [nM] | apparent K (half saturation) [2] [nM] | also measured
UACAUGU | – | – | binding signal [1]: -5.01 ln(KA,rel)
UGCAUGU [UGCAUGU (cognate)] | 14.3 | – | –
UGAAUGU | 35.3 | – | –
B1 | – | 14.3 ± 2.5 | –
B2 | – | – | apparent K (half saturation) (RbFox RRM (wt)): 1.6 ± 0.3 nM
B3 | – | 35.3 ± 11.8 | apparent K (half saturation) (RBFOX1 RRM): > 17 µM
